# Measured values as given in PMC2148190 (The Journal of Cell Biology, 1999).
# Substitutions are numbered along the chain they refer to.
# B1: His-tagged Bid (recombinant wild-type Bid) (natural protein)
# chain: MDSEVSNGSGLGAEHITDLLVFGFLQSSGCTRQELEVLGRELPVQAYWEADLEDELQTDGSQASRSFNQGRIEPDSESQEEIIHNIARHLAQIGDEMDHNIQPTLVRQLAAQFMNGSLSEEDKRNCLAKALDEVKTAFPRDMENDKAMLIMTMLLAKKVASHAPSLLRDVFHTTVNFINQNLFSYVRNLVRNEMD
# B2: BidmIII-3 (G94→ A) (natural protein)
# chain: B1 chain with G94A
# Tests used:
# [1] = biological target: Human Bcl-2 lacking 34 amino acids at the COOH terminus (human, UniProt P10415 1-205); experiment: co-IP
# [2] = biological target: His-tagged human Bcl-xL lacking 24 amino acids at the COOH terminus (human, UniProt Q07817-1 1-209); experiment: co-IP
# Sequence of His-tagged human Bcl-xL lacking 24 amino acids at the COOH terminus (Q07817 1-209): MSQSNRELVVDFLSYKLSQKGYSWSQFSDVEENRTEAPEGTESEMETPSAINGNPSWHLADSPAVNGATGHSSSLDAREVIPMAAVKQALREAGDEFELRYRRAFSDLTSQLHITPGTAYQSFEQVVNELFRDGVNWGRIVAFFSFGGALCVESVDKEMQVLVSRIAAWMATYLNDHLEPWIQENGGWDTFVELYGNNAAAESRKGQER
# Sequence of Human Bcl-2 lacking 34 amino acids at the COOH terminus (P10415 1-205): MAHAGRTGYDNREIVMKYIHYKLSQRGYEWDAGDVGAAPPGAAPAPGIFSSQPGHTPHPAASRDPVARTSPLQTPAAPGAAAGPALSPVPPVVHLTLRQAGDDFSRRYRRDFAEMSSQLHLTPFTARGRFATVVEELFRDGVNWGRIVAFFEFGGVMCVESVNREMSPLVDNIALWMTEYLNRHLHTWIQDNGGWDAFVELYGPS
Binder,binding result [1],binding result [2]
B1,binds,binds
B2,binds,binds
